This assay concerns the target Recombinant active ACE2-Fc (ACRO biosystems, AC2-H5257) (human) (UniProt Q9BYF1). Nature of the assay: SPR. Background: In SPR one partner is held on a chip, and binding of the other changes the refractive index at the surface.

In general, Kd refers to the constant that tells how readily two partners part at equilibrium.

UniProt Q9BYF1, sequence (Q9BYF1 18-740): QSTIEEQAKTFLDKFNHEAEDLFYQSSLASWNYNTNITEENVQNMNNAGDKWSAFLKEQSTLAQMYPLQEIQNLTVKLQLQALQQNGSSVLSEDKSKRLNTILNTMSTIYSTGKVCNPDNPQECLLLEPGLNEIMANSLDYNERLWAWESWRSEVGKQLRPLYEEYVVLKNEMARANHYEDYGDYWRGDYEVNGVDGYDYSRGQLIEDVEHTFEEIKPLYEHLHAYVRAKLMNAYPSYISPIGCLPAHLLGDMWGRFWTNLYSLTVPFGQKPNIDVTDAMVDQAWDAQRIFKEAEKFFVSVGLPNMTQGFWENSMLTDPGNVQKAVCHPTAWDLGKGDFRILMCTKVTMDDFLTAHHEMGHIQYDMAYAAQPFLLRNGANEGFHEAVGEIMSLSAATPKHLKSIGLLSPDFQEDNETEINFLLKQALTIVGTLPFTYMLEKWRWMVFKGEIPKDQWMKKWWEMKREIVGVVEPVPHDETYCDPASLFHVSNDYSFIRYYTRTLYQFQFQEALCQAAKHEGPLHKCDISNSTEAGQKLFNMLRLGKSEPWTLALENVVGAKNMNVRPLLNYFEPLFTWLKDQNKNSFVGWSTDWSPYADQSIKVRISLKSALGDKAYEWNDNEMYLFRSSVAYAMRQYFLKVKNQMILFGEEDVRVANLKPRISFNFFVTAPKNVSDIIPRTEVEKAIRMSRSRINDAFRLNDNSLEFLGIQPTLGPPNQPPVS

Consider Angiotensin II (peptide), for which the dissociation constant Kd is 117 nM.

The values above are taken from paper PMC8432736.
